Results taken from patent publication US20240301429A1 (RSEM LIMITED PARTNERSHIP, published 2024).

Assays:
Assay in all cases: saturation binding, trap coated on plate, SEMA3A-FC titrated, anti-human IgG-HRP chemiluminescence
[1] = target: T1, NRP1 trap AC (human, UniProt O14786 22-856)
T1 construct: a1a2-b1b2-c with D320K (held in the entry); Signal peptide not trimmed
T1 sequence: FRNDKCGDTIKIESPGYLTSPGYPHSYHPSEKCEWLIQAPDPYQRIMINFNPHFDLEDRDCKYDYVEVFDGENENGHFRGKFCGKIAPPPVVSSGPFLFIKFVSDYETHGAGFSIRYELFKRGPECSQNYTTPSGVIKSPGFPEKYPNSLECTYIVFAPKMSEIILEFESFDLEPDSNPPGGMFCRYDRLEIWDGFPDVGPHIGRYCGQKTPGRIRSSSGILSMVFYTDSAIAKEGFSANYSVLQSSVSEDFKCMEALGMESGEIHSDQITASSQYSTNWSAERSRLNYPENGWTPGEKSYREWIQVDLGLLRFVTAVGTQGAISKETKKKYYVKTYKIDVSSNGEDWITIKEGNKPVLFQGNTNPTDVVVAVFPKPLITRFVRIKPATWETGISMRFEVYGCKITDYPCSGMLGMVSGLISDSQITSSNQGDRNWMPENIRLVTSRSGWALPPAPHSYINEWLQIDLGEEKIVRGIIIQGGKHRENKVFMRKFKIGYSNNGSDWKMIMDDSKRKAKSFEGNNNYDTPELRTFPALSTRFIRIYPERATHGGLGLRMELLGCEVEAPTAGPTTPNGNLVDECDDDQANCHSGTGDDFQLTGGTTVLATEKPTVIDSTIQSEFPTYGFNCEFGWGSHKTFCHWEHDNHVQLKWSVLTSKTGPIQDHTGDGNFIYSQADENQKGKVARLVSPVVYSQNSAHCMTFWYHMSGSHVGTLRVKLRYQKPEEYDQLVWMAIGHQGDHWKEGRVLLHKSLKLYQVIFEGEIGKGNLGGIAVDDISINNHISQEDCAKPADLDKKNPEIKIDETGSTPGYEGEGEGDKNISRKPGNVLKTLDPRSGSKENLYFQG
Experimental: (§1) Sema 3A and AP-VEGF₁₆₅ binding assays. Saturation curves for the determinations of KD of binding to SEMA 3A or VEGF165 were obtained as follow. Wells of high protein binding 96 well plates (Maxisorp, Nunc) were coated with purified traps diluted in PBS and blocked afterward with binding buffer (PBS containing 2% casein and 0.05% Tween 20). The SEMA3A-FC (R&D systems) or AP-VEGF165 ligands were diluted in binding buffer over an extensive range of concentrations and added to wells. Following an overnight incubation, wells were washed with PBS containing 0.05% tween. Bound SEMA3a-FC was detected using an HRP-linked anti-Human IgG (Biorad) and ECL substrate (Pierce). Alternatively, bound AP-VEGF165 was detected using CPD star substrate (Roche). The Chemiluminescent signal was acquired on a TECAN reader. Dissociation constant (KD) were determined by non-linear curve fitting using the Graph Pad prism software.

[2] = target: T2, NRP1 trap R (human, UniProt O14786 22-856)
T2 construct: a1a2-b1b2-c with Y297A (the entry is the trap itself, so no substitution is applied)
T2 sequence: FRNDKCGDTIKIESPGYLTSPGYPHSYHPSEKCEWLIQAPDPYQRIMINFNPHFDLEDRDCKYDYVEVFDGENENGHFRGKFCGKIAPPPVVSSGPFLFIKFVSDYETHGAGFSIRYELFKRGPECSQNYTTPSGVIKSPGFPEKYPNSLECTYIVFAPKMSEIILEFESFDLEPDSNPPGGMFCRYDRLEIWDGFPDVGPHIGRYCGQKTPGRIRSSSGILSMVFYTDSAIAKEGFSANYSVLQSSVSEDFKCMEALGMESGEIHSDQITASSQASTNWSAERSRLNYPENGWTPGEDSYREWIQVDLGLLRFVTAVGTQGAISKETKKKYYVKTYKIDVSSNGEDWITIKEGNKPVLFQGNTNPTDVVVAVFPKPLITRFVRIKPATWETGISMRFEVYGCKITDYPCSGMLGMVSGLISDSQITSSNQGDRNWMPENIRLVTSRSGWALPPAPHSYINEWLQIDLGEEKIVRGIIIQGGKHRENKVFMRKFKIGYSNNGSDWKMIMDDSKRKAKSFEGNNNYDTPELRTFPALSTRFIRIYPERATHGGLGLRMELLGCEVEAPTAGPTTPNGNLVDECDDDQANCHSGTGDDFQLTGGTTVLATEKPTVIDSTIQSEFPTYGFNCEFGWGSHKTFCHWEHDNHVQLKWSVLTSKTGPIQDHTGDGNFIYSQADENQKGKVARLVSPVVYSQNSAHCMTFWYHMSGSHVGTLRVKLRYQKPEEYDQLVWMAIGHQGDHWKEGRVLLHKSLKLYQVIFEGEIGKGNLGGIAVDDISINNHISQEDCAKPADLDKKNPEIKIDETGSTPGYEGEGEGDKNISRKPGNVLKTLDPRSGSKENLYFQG
Experimental: as §1

[3] = target: T3, NRP1 trap G (human, UniProt O14786 22-856)
T3 construct: a1a2-b1b2-c; The mature trap lacks the signal peptide (about aa 1-21, may vary)
T3 sequence: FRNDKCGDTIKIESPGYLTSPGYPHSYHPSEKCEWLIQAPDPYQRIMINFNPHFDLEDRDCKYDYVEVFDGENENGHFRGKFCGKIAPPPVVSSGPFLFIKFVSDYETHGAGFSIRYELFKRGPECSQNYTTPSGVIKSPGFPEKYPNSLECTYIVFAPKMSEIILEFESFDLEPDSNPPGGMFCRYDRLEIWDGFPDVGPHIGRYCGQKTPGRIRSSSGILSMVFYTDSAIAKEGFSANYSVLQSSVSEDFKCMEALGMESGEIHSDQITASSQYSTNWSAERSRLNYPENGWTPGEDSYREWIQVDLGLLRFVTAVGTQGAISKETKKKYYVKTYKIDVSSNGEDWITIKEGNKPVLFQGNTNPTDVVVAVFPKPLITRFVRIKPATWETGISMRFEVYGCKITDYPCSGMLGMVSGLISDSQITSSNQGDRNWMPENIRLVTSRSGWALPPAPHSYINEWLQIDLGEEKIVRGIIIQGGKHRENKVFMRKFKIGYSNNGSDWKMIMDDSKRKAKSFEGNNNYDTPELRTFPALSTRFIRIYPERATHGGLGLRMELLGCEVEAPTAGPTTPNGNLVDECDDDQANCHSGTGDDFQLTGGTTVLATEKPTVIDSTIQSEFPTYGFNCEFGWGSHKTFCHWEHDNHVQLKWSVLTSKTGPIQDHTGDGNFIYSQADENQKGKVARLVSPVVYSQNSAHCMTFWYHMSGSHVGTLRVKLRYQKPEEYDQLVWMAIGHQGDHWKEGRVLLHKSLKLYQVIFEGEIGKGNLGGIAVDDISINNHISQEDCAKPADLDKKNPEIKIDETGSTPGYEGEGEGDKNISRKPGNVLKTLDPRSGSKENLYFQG
Experimental: as §1

B1: SEMA3A-FC (R&D systems) (Fc fusion)
chain: YQNGKNNVPRLKLSYKEMLESNNVITFNGLANSSSYHTFLLDEERSRLYVGAKDHIFSFDLVNIKDFQKIVWPVSYTRRDECKWAGKDILKECANFIKVLKAYNQTHLYACGTGAFHPICTYIEIGHHPEDNIFKLENSHFENGRGKSPYDPKLLTASLLIDGELYSGTAADFMGRDFAIFRTLGHHHPIRTEQHDSRWLNDPKFISAHLISESDNPEDDKVYFFFRENAIDGEHSGKATHARIGQICKNDFGGHRSLVNKWTTFLKARLICSVPGPNGIDTHFDELQDVFLMNFKDPKNPVVYGVFTTSSNIFKGSAVCMYSMSDVRRVFLGPYAHRDGPNYQWVPYQGRVPYPRPGTCPSKTFGGFDSTKDLPDDVITFARSHPAMYNPVFPMNNRPIVIKTDVNYQFTQIVVDRVDAEDGQYDVMFIGTDVGTVLKVVSIPKETWYDLEEVLLEEMTVFREPTAISAMELSTKQQQLYIGSTAGVAQLPLHRCDIYGKACAECCLARDPYCAWDGSACSRYFPTAKRRTRRQDIRNGDPLTHCSDLHHDNHHGHSPEERIIYGVENSSTFLECSPKSQRALVYWQFQRRNEERKEEIRVDDHIIRTDQGLLLRSLQQKDSGNYLCHAVEHGFIQTLLKVTLEVIDTEHLEELLHKDDDGDGSKTKEMSNSMTPSQKVWYRDFMQLINHPNLNTMDEFCEQVWKRDRKQRRQRPGHTPGNSNKWKHLQENKKGRNRRTHEFERAPRSV
notes: Bought reagent; not shown: Fc portion of the bought fusion, detected with anti-human IgG
[1]
  Kd: 4 nM
[2]
  Kd: 6.15 nM
[3]
  Kd: 0.8 nM
